Assay [1] has as its target yeast-displayed IL-11 GIPR (human). The assay is described as follows: flow cytometry on cells; yeast-displayed IL-11 variants incubated with varying concentrations of soluble IL-11R or mIL-11R overnight at room temperature, washed with BPBS; receptor detected with anti-his AF647, display with anti-c-myc; apparent Kd from the fraction bound of the expressing ….
For assay [2], the target named is yeast-displayed IL-11 GIPR S60T (human). The description is as above.
The target in another assay is T1, human gp130-Fc, P40189.
T1 chain: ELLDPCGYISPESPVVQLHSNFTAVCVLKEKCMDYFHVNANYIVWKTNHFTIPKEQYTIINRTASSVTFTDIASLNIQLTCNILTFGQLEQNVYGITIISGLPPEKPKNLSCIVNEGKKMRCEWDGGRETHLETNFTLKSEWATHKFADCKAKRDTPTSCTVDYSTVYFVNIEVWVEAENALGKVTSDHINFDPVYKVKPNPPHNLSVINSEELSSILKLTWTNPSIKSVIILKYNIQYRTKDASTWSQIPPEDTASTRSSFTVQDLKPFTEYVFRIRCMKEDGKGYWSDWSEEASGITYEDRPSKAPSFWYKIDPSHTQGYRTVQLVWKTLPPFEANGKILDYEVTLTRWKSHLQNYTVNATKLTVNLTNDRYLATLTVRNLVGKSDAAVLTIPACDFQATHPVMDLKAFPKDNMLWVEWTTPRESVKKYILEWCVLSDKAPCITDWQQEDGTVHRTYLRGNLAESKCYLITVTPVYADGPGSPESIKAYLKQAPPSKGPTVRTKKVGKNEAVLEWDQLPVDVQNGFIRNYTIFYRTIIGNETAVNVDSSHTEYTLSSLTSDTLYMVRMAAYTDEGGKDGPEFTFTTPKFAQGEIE
Kind of assay: flow cytometry on yeast-displayed IL-11. The following applies: chain shown with the change, 100 nM IL-11R added, read off a plot.

For assay [3], the target named is T2, yeast-displayed IL-11 L57P (human).
T2 sequence (P20809 22-199 with L57P, looked up): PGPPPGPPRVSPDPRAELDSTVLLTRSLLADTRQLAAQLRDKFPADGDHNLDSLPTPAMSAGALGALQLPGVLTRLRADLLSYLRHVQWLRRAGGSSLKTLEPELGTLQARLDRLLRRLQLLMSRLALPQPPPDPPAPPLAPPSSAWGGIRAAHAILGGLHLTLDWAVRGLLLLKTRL
Kind of assay: flow cytometry on cells; yeast-displayed IL-11 variants incubated with varying concentrations of soluble IL-11R or mIL-11R overnight at room temperature, washed with BPBS; receptor detected with anti-his AF647, display with anti-c-myc; apparent Kd from the fraction bound of the expressing ….

B1: soluble mouse IL-11 receptor (receptor)
chain: SPCPQAWGPPGVQYGQPGRPVMLCCPGVSAGTPVSWFRDGDSRLLQGPDSGLGHRLVLAQVDSPDEGTYVCQTLDGVSGGMVTLKLGFPPARPEVSCQAVDYENFSCTWSPGQVSGLPTRYLTSYRKKTLPGAESQRESPSTGPWPCPQDPLEASRCVVHGAEFWSEYRINVTEVNPLGASTCLLDVRLQSILRPDPPQGLRVESVPGYPRRLHASWTYPASWRRQPHFLLKFRLQYRPAQHPAWSTVEPIGLEEVITDAVAGLPHAVRVSARDFLDAGTWSAWSPEAWGTPSTGPLQDEIPDWSQGHGQQLEAVVAQEDSPAPARPSLQPDPRPLDHRDPLEQVAVLA
In the case of B1, the Kd in assay [1] amounted to 1.5 nM; in assay [2], 0.29 nM.

B2: yeast-displayed wild-type human IL-11, P20809 D19G; T21I; L57P; G62R (protein)
chain: PGPPPGPPRVSPDPRAELGSIVLLTRSLLADTRQLAAQLRDKFPADGDHNLDSLPTPAMSARALGALQLPGVLTRLRADLLSYLRHVQWLRRAGGSSLKTLEPELGTLQARLDRLLRRLQLLMSRLALPQPPPDPPAPPLAPPSSAWGGIRAAHAILGGLHLTLDWAVRGLLLLKTRL
Turning to B2, the response (Normalized Fluorescence) with human gp130-Fc, P40189 (10 nM gp130-Fc) stood at 28000; with human gp130-Fc, P40189 (100 nM gp130-Fc), 35000; in the assay with human gp130-Fc, P40189 (1000 nM gp130-Fc) it was 40000.

B3: soluble human IL-11 receptor extracellular domain, his-tagged (receptor)
chain: SPCPQAWGPPGVQYGQPGRSVKLCCPGVTAGDPVSWFRDGEPKLLQGPDSGLGHELVLAQADSTDEGTYICQTLDGALGGTVTLQLGYPPARPVVSCQAADYENFSCTWSPSQISGLPTRYLTSYRKKTVLGADSQRRSPSTGPWPCPQDPLGAARCVVHGAEFWSQYRINVTEVNPLGASTRLLDVSLQSILRPDPPQGLRVESVPGYPRRLRASWTYPASWPCQPHFLLKFRLQYRPAQHPAWSTVEPAGLEEVITDAVAGLPHAVRVSARDFLDAGTWSTWSPEAWGTPSTGTIPKEIPAWGQLHTQPEVEPQVDSPAPPRPSLQPHPRLLDHRDSVEQVAVLA
Turning to B3, in assay [1], the Kd worked out at 0.12 nM and the fold improvement of apparent Kd over WT IL-11 was determined as 70 fold. For the same molecule, in assay [3], the Kd was determined as 0.71 nM and the fold improvement in IL-11R binding over WT IL-11 is 10 fold.

The record behind these values is publication PMC10658506.
